US20230051715A1 (MABWELL THERAPEUTICS, published 2023)

T1: active human C1s (CompTech A104 C1s Enzyme) (human, UniProt P09871 16-688)
T1 construct: also called human active C1s; active C1s protein
T1 sequence (looked up): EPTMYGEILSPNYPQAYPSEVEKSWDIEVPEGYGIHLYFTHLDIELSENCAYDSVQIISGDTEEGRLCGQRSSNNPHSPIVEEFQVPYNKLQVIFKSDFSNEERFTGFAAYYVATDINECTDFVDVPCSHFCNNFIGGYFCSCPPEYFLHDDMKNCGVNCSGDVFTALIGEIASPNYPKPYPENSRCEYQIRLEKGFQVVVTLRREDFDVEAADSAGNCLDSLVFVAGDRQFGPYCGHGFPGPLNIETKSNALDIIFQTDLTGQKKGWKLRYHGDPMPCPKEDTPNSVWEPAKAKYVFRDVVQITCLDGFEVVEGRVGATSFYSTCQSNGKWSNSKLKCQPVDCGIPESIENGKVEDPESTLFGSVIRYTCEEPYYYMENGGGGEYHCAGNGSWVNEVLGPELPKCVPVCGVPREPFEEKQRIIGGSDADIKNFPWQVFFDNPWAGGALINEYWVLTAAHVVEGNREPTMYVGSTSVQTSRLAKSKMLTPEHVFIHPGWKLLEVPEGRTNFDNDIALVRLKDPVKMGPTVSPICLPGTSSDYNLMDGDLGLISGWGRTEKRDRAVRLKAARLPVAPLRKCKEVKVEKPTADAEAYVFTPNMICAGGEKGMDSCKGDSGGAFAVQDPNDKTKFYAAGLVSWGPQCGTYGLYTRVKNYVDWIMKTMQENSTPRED

T2: human C1s proenzyme (CompTech A103) (human, UniProt P09871 16-688)
T2 construct: also called proenzyme human C1s (native C1s)
T2 sequence (looked up): T1 sequence (looked up)

T3: rat C1s (produced in house) (rat, UniProt Q6P6T1 16-688)
T3 construct: also called RaC1s
T3 sequence: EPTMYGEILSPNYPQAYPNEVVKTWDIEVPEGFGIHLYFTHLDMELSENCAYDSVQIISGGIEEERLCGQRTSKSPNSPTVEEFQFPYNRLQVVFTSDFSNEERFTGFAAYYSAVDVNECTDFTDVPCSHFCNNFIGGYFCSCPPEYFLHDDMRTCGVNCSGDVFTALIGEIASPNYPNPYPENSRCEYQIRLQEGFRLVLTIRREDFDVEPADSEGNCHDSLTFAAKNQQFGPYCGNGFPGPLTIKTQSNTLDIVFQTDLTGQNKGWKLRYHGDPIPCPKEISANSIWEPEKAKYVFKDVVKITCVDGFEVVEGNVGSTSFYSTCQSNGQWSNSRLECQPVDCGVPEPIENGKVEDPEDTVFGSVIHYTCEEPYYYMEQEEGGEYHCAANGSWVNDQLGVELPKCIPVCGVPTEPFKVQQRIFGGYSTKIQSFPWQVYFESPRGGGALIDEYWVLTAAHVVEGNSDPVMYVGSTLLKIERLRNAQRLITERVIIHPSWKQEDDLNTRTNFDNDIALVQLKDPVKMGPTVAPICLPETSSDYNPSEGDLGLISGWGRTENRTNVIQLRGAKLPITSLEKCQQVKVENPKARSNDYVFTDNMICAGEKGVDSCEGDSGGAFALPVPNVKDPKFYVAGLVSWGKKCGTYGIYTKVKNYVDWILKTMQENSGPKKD

B1: Anti-C1s antibody hz2-8 (H1L2 G80A/T82A) (antibody, V domains shown)
VH: QVQLVQSGAEVKKPGASVKVSCKASGFNIKEYYMHWVRQAPEQGLEWMGWIDPENADAIYAQKFQGRVTITADTSTNTAYMELSSLRSEDTAVYYCARSRLFFAYWGQGTLVTVSS
VL: DIQMTQSPKSLSASVGDRVTITCRASQDVRTALDWYQQKPGQSPKLLIYSASYRYSGVPSRFSGSGSGTDFTLTISSLQPEDFATYYCQQQYTTPYTFGQGTKLEIKR
notes: Humanized variant with G80A and T82A in HC CDR2 (already in the entry), human IgG1 / kappa
B2: Anti-C1s antibody hz2-7(H1L2) (antibody, V domains shown)
VH: EVQLLESGGGLVQPGGSLRLSCAASGFTFSNYFMNWVRQAPGKGLEWVSEIRLKFTNYATHYADSVKGRFTISRDDSKSTLYLQMNSLRAEDTAVYYCTRDYGSRNGYFDYWGQGTLVTVSS
VL: DIVMTQTPLSLPVTPGEPASISCRSSKSLLHSNGNTFLYWFLQKPGQSPQLLIYRMSNLASGVPDRFSGSGSGTDFTLKISRVEAEDVGVYYCMQHLEYPYTFGGGTKLEIKR
notes: Humanized, human IgG1 / kappa; also called hz2-7(1L2)
B3: Anti-C1s antibody 2-8 (antibody, V domains shown)
VH: EVQLQQSGAELVRPGALVKLSCKASGFNIKEYYMHWVKQRPEQGLEWIGWIDPENGDTIYDPKFQGKASITADTSSNTAYLQLSSLTSEDTAVYYCARSRLFFAYWGQGTLVTVSA
VL: DIVMTQSHKFMSTSVGDRVSFTCKASQDVRTAVDWYQQKPGQSPKLLIYSASYRYTGVPDRFTGTGSGTDFTFTISSVQAEDLAVYFCQQQYTTPYTFGGGTKLEIKT
notes: the HC/LC entries may hold it too; also called clone 2-8
B4: Anti-C1s antibody 2-7 (antibody, human IgG1, kappa, V domains shown)
VH: EVKLEESGGGLVPPGGSMKLSCVASGFTFSNYFMNWVRQSPEKGLEWVAEIRLKFTNYATHYAESVEGRFTISRDDSKSSVYLQMNNLRAEDTGIYYCTRDYGSRNGYFDYWGQGTTLTVSS
VL: DIVMTQAAPSVPVTPGESVSISCRSSKSLLHSNGNTFLYWFLQRPGQSPQLLIYRMSNLASGVPDRFSGSGSGTAFTLRVSRVEAEDVGIYYCMQHLEYPYTFGGGTKLEIKT
notes: the HC/LC entries may hold it too; also called clone 2-7

What follows are binders tested against T1, active human C1s (CompTech A104 C1s …) (assay: ELISA, C1s coated on plate).
Protocol: (§1) ELISA was carried out by first coating 96-well plates with 200 ng/well of human active C1s (CompTech A104, FIG. 3F) or human C1s proenzyme (CompTech A103, FIG. 3G) proteins overnight. The next morning, plates were blocked with SuperBlock T20 blocking buffer (Thermo Fisher Scientific Inc., Catalog No. 37536) for 1 h with gentle shaking. Then, various concentrations of anti-C1s antibodies diluted in SuperBlock T20 blocking buffer were added to the plates and incubated for 1 h with gentle shaking. Human IgG1 (BioXCell BP0297) was used as a negative control. The plates were washed before incubating with HRP conjugated secondary antibodies diluted in SuperBlock T20 blocking buffer (goat anti-human IgG antibody, HRP conjugate (Millipore AP309P)) for 1 h with gentle shaking. At last, the plates were washed and color developed with ELISA liquid substrate (Sigma-Aldrich), followed by stopping the reaction with addition of the same volume of […] 1M H₂SO₄. Bound antibody was measured by absorbance at OD₄₅₀ₙₘ.
(§2) The EC₅₀ for each antibody and target combination was determined as follows: for antibody 2-7, EC₅₀ for human active C1s is 12 ng/ml and EC₅₀ for human C1s proenzyme is 9 ng/ml; for antibody 2-8, EC₅₀ for human active C1s is 12 ng/ml and EC₅₀ for human C1s proenzyme is 10 ng/ml; for variant hz2-7(1L2), EC₅₀ for human active C1s is 13 ng/ml and EC₅₀ for human C1s proenzyme is 12 ng/ml; and for variant hz2-8(H1L2 G80A/T82A), EC₅₀ for human active C1s is 10 ng/ml and EC₅₀ for human C1s proenzyme is 8 ng/ml.

EC50 [µg/mL] | Binder
0.01 | B1
0.013 | B2
0.012 | B3
0.012 | B4

The binders below were run against T2, human C1s proenzyme (CompTech A103) (assay: ELISA, C1s coated on plate).
Protocol: as §1, §2

EC50 [µg/mL] | Binder
0.008 | B1
0.012 | B2
0.01 | B3
0.009 | B4

What follows are binders tested against T3, rat C1s (produced in house) (assay: ELISA, plate coated with 200 ng/well RatC1s, OD450nm).
Protocol: The next morning, plates were blocked with SuperBlock T20 blocking buffer (Thermo Scientific 37536) for 1 h with gentle shaking. Then, various concentrations of anti-C1s antibodies diluted in SuperBlock T20 blocking buffer were added to the plates and incubated for 1 h with gentle shaking. Mouse IgG (Sigma-Aldrich I5381) and Human IgG1 (BioXCell BP0297) were used as negative controls. The plates were washed before incubating with HRP conjugated secondary antibodies diluted in SuperBlock T20 blocking buffer (goat anti-mouse IgG (H+L) cross-adsorbed secondary antibody HRP (Invitrogen G-21040) or goat anti-human IgG antibody, HRP conjugate (Millipore AP309P)) for 1 h with gentle shaking. At last, the plates were washed and color developed with ELISA liquid substrate (Sigma-Aldrich), followed by stopping the reaction with addition of the same volume of […] 1M H₂SO₄. Bound antibody was measured by absorbance at OD₄₅₀ₙₘ.

EC50 [µg/mL] | binding result | Binder
0.105 |  | B1
 | no binding (tested: 1000 ng/ml (Log 3)) | B2
0.063 |  | B3
 | no binding (tested: 1000 ng/ml (Log 3)) | B4
